The source of these data is patent publication US20140287471A1, “VARIANT CBH I POLYPEPTIDES WITH REDUCED PRODUCT INHIBITION” (BP CORPORATION NORTN AMERICA INC., priority 2011, published 2014).

Where two headings read alike, the source gives them in different places.

A short description of the test: 4-MUL cellobiose tolerance/inhibition assay, dose-response IC50 (Example 2). Type of test: biochemical. The method, then: CBH I activity on was measured using the 4-MUL assay using gluconolactone to inhibit any BG activity. The fluorogenic 4-MUL substrate (SIGMA) was prepared at 100 mM concentration in DMSO. Assays were run in black 96-well-flat-bottomed plates (Costar) and 4-MU fluorescence was read on a BioTek H4 plate reader (ex/em 365/450 nm). Assay plates were filled with buffer (final concentrations of 100 mM MES, pH 6, 25 mM gluconolactone, with or without cellobiose; cellobiose concentrations are listed with appropriate data sets), to which enzyme mixture was added (10-30 μl, 5 μg/mL final) and then assays were initiated by addition of 4-MUL (0.5 mM final concentration in 100 μl total volume). Enzyme mixtures were either CBH I variants from harvested supernatants or standards. Standards included: a negative control, consisting of harvested supernatant from the CBH I knock-out strain; a positive control, consisting of wild-type CBH I from harvested supernatants; and, a commercial CBH I standard (E-CBHI from Megazymes). Activity standards were run by serial dilution of commercial CBH I from 40 to 0.02 μg/mL and 4-MU (SIGMA, prepared at 20 mM in DMSO) (in dilution increments of 2-fold; all dilutions were made using harvested supernatant from the knock-out control). Kinetic rates were monitored over the first 15 mins following 4-MUL addition; initial rates were calculated based on data in the linear range. After 1 hr, a final endpoint read was taken, both before and after reaction quenching (100 μL of 200 mM Sodium Carbonate, pH 10.0). Activity was calculated for kinetic and endpoint reads; background resulting from the CBH I knock-out supernatant remained negligible. 4MU standard curves and HPLC quantification values were used to calculate specific activity.
Tolerance/inhibition values represent activity ratios and/or percent activity remaining/percent activity decreased in the presence versus the absence of cellobiose. Tolerant variants show less inhibition in the presence of cellobiose as compared to wild type, where an activity ratio of 1 (with vs. without a given concentration of cellobiose) is equivalent to 0% inhibition by cellobiose, or 100% tolerance. The effect of cellobiose on CBH I variant performance was monitored by dose-response in the 4MUL assay. Dose-response curves were generated by assaying variant activity in the presence of 6-8 different cellobiose concentrations ranging up to 100 mM cellobiose. CBH I samples were diluted to 5 μg/mL final concentration or were used directly in the case of protein quantification levels below 5 μg/mL. Half maximal inhibitory concentration (IC50) values were determined by plotting 4MUL activity versus cellobiose concentration and fitting with a four parameter dose-response fitting algorithm, with zero activity (or 100% inhibition) constrained to background activity (as established by CBH I knockout values) and with automatic outlier elimination (on GraphPad Prism 5).
Harvested supernatants from active variant isolates were evaluated for cellobiose tolerance at 1 mM cellobiose in the 4-MUL activity assay. Table 8 lists the tolerance of variants at 1 mM. […] Additional cellobiose concentrations at 0.25, 5, 10, 50, and 100 mM were tested leading to full dose-response curves for which half maximal inhibitory concentration (IC50) values were generated (Table 8). The IC50 values support that the variant library has decreased product inhibition, or increased tolerance to cellobiose, when compared to the wild-type enzyme (WT IC50=0.03 mM; see first entry, Table 8).
In one example, the cellobiose tolerance of the library was explored in more detail by generating dose-response curves and determining half maximal inhibitory concentration (IC50) values, the point at which the enzyme is 50% inhibited.

Setting [1] is: Secondary screening, CBH I levels normalized to 5 μg/mL, cellobiose range 0.00085-100 mM, read-out: IC50.
The mark [2] stands for this setting: secondary screening, CBH I levels normalized to 5 μg/mL, cellobiose range 0.0001-100 mM, read-out: Average IC50.

B1: R268R (protein, UniProt P62694 18-513, looked up)
Exoglucanase 1: QSACTLQSETHPPLTWQKCSSGGTCTQQTGSVVIDANWRWTHATNSSTNCYDGNTWSSTLCPDNETCAKNCCLDGAAYASTYGVTTSGNSLSIGFVTQSAQKNVGARLYLMASDTTYQEFTLLGNEFSFDVDVSQLPCGLNGALYFVSMDADGGVSKYPTNTAGAKYGTGYCDSQCPRDLKFINGQANVEGWEPSSNNANTGIGGHGSCCSEMDIWEANSISEALTPHPCTTVGQEICEGDGCGGTYSDNRYGGTCDPDGCDWNPYRLGNTSFYGPGSSFTLDTTKKLTVVTQFETSGAINRYYVQNGVTFQQPNAELGSYSGNELNDDYCTAEEAEFGGSSFSDKGGLTQFKKATSGGMVLVMSLWDDYYANMLWLDSTYPTNETSSTPGAVRGSCSTSSGVPAQVESQSPNAKVTFSNIKFGPIGSTGNPSGGNPPGGNRGTTTTRRPATTTGSSPGPTQSHYGQCGGIGYSGPTVCASGTTCQVLNPYYSQCL
Consider B1, for which the IC50 (in general, the concentration that inhibits the measured activity by half) stood at 52 µM under setting [1] and 46 µM under setting [2].

B2: R411C (protein, UniProt P62694 18-513, looked up, variant R411C)
Exoglucanase 1: QSACTLQSETHPPLTWQKCSSGGTCTQQTGSVVIDANWRWTHATNSSTNCYDGNTWSSTLCPDNETCAKNCCLDGAAYASTYGVTTSGNSLSIGFVTQSAQKNVGARLYLMASDTTYQEFTLLGNEFSFDVDVSQLPCGLNGALYFVSMDADGGVSKYPTNTAGAKYGTGYCDSQCPRDLKFINGQANVEGWEPSSNNANTGIGGHGSCCSEMDIWEANSISEALTPHPCTTVGQEICEGDGCGGTYSDNRYGGTCDPDGCDWNPYRLGNTSFYGPGSSFTLDTTKKLTVVTQFETSGAINRYYVQNGVTFQQPNAELGSYSGNELNDDYCTAEEAEFGGSSFSDKGGLTQFKKATSGGMVLVMSLWDDYYANMLWLDSTYPTNETSSTPGAVCGSCSTSSGVPAQVESQSPNAKVTFSNIKFGPIGSTGNPSGGNPPGGNRGTTTTRRPATTTGSSPGPTQSHYGQCGGIGYSGPTVCASGTTCQVLNPYYSQCL
As for B2, the IC50 came out at 1310 µM under setting [1] and 886 µM under setting [2].

B3: R411N (protein, UniProt P62694 18-513, looked up, variant R411N)
Exoglucanase 1: QSACTLQSETHPPLTWQKCSSGGTCTQQTGSVVIDANWRWTHATNSSTNCYDGNTWSSTLCPDNETCAKNCCLDGAAYASTYGVTTSGNSLSIGFVTQSAQKNVGARLYLMASDTTYQEFTLLGNEFSFDVDVSQLPCGLNGALYFVSMDADGGVSKYPTNTAGAKYGTGYCDSQCPRDLKFINGQANVEGWEPSSNNANTGIGGHGSCCSEMDIWEANSISEALTPHPCTTVGQEICEGDGCGGTYSDNRYGGTCDPDGCDWNPYRLGNTSFYGPGSSFTLDTTKKLTVVTQFETSGAINRYYVQNGVTFQQPNAELGSYSGNELNDDYCTAEEAEFGGSSFSDKGGLTQFKKATSGGMVLVMSLWDDYYANMLWLDSTYPTNETSSTPGAVNGSCSTSSGVPAQVESQSPNAKVTFSNIKFGPIGSTGNPSGGNPPGGNRGTTTTRRPATTTGSSPGPTQSHYGQCGGIGYSGPTVCASGTTCQVLNPYYSQCL
On to B3, for which the IC50 reads like this: (Secondary screening, 30 μl harvested supernatant (CBH I levels lower than 5 μg/mL), cellobiose range 0.00085-100 mM, read-out: IC50) 7900 µM; under setting [2], 6720 µM.

B4: R411V (protein, UniProt P62694 18-513, looked up, variant R411V)
Exoglucanase 1: QSACTLQSETHPPLTWQKCSSGGTCTQQTGSVVIDANWRWTHATNSSTNCYDGNTWSSTLCPDNETCAKNCCLDGAAYASTYGVTTSGNSLSIGFVTQSAQKNVGARLYLMASDTTYQEFTLLGNEFSFDVDVSQLPCGLNGALYFVSMDADGGVSKYPTNTAGAKYGTGYCDSQCPRDLKFINGQANVEGWEPSSNNANTGIGGHGSCCSEMDIWEANSISEALTPHPCTTVGQEICEGDGCGGTYSDNRYGGTCDPDGCDWNPYRLGNTSFYGPGSSFTLDTTKKLTVVTQFETSGAINRYYVQNGVTFQQPNAELGSYSGNELNDDYCTAEEAEFGGSSFSDKGGLTQFKKATSGGMVLVMSLWDDYYANMLWLDSTYPTNETSSTPGAVVGSCSTSSGVPAQVESQSPNAKVTFSNIKFGPIGSTGNPSGGNPPGGNRGTTTTRRPATTTGSSPGPTQSHYGQCGGIGYSGPTVCASGTTCQVLNPYYSQCL
Take B4: the half-maximal inhibitory concentration (IC50) is, setting by setting: under setting [1], 2900 µM; under setting [2], 3190 µM.

B5: R411F (protein, UniProt P62694 18-513, looked up, variant R411F)
Exoglucanase 1: QSACTLQSETHPPLTWQKCSSGGTCTQQTGSVVIDANWRWTHATNSSTNCYDGNTWSSTLCPDNETCAKNCCLDGAAYASTYGVTTSGNSLSIGFVTQSAQKNVGARLYLMASDTTYQEFTLLGNEFSFDVDVSQLPCGLNGALYFVSMDADGGVSKYPTNTAGAKYGTGYCDSQCPRDLKFINGQANVEGWEPSSNNANTGIGGHGSCCSEMDIWEANSISEALTPHPCTTVGQEICEGDGCGGTYSDNRYGGTCDPDGCDWNPYRLGNTSFYGPGSSFTLDTTKKLTVVTQFETSGAINRYYVQNGVTFQQPNAELGSYSGNELNDDYCTAEEAEFGGSSFSDKGGLTQFKKATSGGMVLVMSLWDDYYANMLWLDSTYPTNETSSTPGAVFGSCSTSSGVPAQVESQSPNAKVTFSNIKFGPIGSTGNPSGGNPPGGNRGTTTTRRPATTTGSSPGPTQSHYGQCGGIGYSGPTVCASGTTCQVLNPYYSQCL
Take B5: the IC50 by setting is: under setting [1], 7580 µM; under setting [2], 5390 µM.

B6: R268T (protein, UniProt P62694 18-513, looked up, variant R268T)
Exoglucanase 1: QSACTLQSETHPPLTWQKCSSGGTCTQQTGSVVIDANWRWTHATNSSTNCYDGNTWSSTLCPDNETCAKNCCLDGAAYASTYGVTTSGNSLSIGFVTQSAQKNVGARLYLMASDTTYQEFTLLGNEFSFDVDVSQLPCGLNGALYFVSMDADGGVSKYPTNTAGAKYGTGYCDSQCPRDLKFINGQANVEGWEPSSNNANTGIGGHGSCCSEMDIWEANSISEALTPHPCTTVGQEICEGDGCGGTYSDNTYGGTCDPDGCDWNPYRLGNTSFYGPGSSFTLDTTKKLTVVTQFETSGAINRYYVQNGVTFQQPNAELGSYSGNELNDDYCTAEEAEFGGSSFSDKGGLTQFKKATSGGMVLVMSLWDDYYANMLWLDSTYPTNETSSTPGAVRGSCSTSSGVPAQVESQSPNAKVTFSNIKFGPIGSTGNPSGGNPPGGNRGTTTTRRPATTTGSSPGPTQSHYGQCGGIGYSGPTVCASGTTCQVLNPYYSQCL
Turning to B6, the half-maximal inhibitory concentration (IC50) under setting [1] is 349 µM and the IC50 under setting [2] was 360 µM.

B7: R268H (protein, UniProt P62694 18-513, looked up, variant R268H)
Exoglucanase 1: QSACTLQSETHPPLTWQKCSSGGTCTQQTGSVVIDANWRWTHATNSSTNCYDGNTWSSTLCPDNETCAKNCCLDGAAYASTYGVTTSGNSLSIGFVTQSAQKNVGARLYLMASDTTYQEFTLLGNEFSFDVDVSQLPCGLNGALYFVSMDADGGVSKYPTNTAGAKYGTGYCDSQCPRDLKFINGQANVEGWEPSSNNANTGIGGHGSCCSEMDIWEANSISEALTPHPCTTVGQEICEGDGCGGTYSDNHYGGTCDPDGCDWNPYRLGNTSFYGPGSSFTLDTTKKLTVVTQFETSGAINRYYVQNGVTFQQPNAELGSYSGNELNDDYCTAEEAEFGGSSFSDKGGLTQFKKATSGGMVLVMSLWDDYYANMLWLDSTYPTNETSSTPGAVRGSCSTSSGVPAQVESQSPNAKVTFSNIKFGPIGSTGNPSGGNPPGGNRGTTTTRRPATTTGSSPGPTQSHYGQCGGIGYSGPTVCASGTTCQVLNPYYSQCL
Consider B7, for which the IC50 under setting [1] was found to be 283 µM and the IC50 under setting [2] is 209 µM.

B8: R268C (protein, UniProt P62694 18-513, looked up, variant R268C)
Exoglucanase 1: QSACTLQSETHPPLTWQKCSSGGTCTQQTGSVVIDANWRWTHATNSSTNCYDGNTWSSTLCPDNETCAKNCCLDGAAYASTYGVTTSGNSLSIGFVTQSAQKNVGARLYLMASDTTYQEFTLLGNEFSFDVDVSQLPCGLNGALYFVSMDADGGVSKYPTNTAGAKYGTGYCDSQCPRDLKFINGQANVEGWEPSSNNANTGIGGHGSCCSEMDIWEANSISEALTPHPCTTVGQEICEGDGCGGTYSDNCYGGTCDPDGCDWNPYRLGNTSFYGPGSSFTLDTTKKLTVVTQFETSGAINRYYVQNGVTFQQPNAELGSYSGNELNDDYCTAEEAEFGGSSFSDKGGLTQFKKATSGGMVLVMSLWDDYYANMLWLDSTYPTNETSSTPGAVRGSCSTSSGVPAQVESQSPNAKVTFSNIKFGPIGSTGNPSGGNPPGGNRGTTTTRRPATTTGSSPGPTQSHYGQCGGIGYSGPTVCASGTTCQVLNPYYSQCL
Take B8: the half-maximal inhibitory concentration (IC50) was 351 µM under setting [1] and 335 µM under setting [2].
